Assay results reported in paper PMC7160020 (Biochemistry, 2020).
Like-named read-outs stand apart in the source and are kept apart here. One block for each molecule: values may come before it.

Assays:
[1] = biological target: RNR β2 (Escherichia coli) (UniProt P69924); conditions: cited from earlier work
[2] = biological target: RNR β2 (Escherichia coli) (UniProt P69924); conditions: cited from earlier work; remark: listed apart in the source
[3] = biological target: T1, His6-α2 (E. coli class Ia ribonucleotide reductase α subunit, NrdA) (E. coli, UniProt P00452 1-761); test: stopped-flow fluorescence spectroscopy
T1 sequence (looked up): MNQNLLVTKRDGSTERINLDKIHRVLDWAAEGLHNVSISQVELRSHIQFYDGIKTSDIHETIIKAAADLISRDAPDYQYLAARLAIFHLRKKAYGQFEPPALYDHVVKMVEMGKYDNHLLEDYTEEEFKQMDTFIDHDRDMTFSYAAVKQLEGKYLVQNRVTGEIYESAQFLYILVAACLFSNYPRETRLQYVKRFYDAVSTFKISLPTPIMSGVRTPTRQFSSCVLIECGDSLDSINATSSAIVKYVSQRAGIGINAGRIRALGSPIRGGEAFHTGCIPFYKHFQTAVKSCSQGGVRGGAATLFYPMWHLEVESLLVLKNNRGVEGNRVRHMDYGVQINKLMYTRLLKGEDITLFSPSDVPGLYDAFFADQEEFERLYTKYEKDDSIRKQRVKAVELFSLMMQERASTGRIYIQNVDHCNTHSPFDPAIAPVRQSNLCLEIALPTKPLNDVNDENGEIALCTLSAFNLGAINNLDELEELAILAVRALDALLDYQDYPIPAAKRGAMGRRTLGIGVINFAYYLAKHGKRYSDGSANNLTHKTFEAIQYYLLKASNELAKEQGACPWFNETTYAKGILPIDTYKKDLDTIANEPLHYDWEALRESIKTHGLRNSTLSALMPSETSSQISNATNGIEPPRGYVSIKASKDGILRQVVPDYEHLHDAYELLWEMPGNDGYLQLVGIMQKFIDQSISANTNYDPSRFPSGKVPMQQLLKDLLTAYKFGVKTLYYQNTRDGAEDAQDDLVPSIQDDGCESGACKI

[4] = biological target: dansyl-β2 (C268S/C305S/V365C-β2 labeled with BADAN) (E. coli); test: stopped-flow fluorescence spectroscopy
[5] = biological target: dansyl-β2 (C268S/C305S/V365C-β2 labeled with BADAN) (E. coli); test: stopped-flow fluorescence spectroscopy; remark: listed apart in the source
[6] = biological target: dansyl-β2 (C268S/C305S/V365C-β2 labeled with BADAN) (E. coli); test: stopped-flow fluorescence spectroscopy; remark: listed apart in the source
[7] = biological target: dansyl-β2 (C268S/C305S/V365C-β2 labeled with BADAN) (E. coli); test: stopped-flow fluorescence spectroscopy; remark: listed apart in the source

Molecule: RNR α2 (from UniProt P00452)
Kd [1]: 200 nM
Kd [2]: 400 nM

binding result [3]: binds
B1: met-β2 (wt-β2 with the tyrosyl radical reduced by hydroxyurea) (enzyme, E. coli, UniProt P69924 1-376, looked up)
chain: MAYTTFSQTKNDQLKEPMFFGQPVNVARYDQQKYDIFEKLIEKQLSFFWRPEEVDVSRDRIDYQALPEHEKHIFISNLKYQTLLDSIQGRSPNVALLPLISIPELETWVETWAFSETIHSRSYTHIIRNIVNDPSVVFDDIVTNEQIQKRAEGISSYYDELIEMTSYWHLLGEGTHTVNGKTVTVSLRELKKKLYLCLMSVNALEAIRFYVSFACSFAFAERELMEGNAKIIRLIARDEALHLTGTQHMLNLLRSGADDPEMAEIAEECKQECYDLFVQAAQQEKDWADYLFRDGSMIGLNKDILCQYVEYITNIRMQAVGLDLPFQTRSNPIPWINTWLVSDNVQVAPQEVEVSSYLVGQIDSEVDTDDLSNFQL
modifications: diferric center, Y122• reduced by hydroxyurea

kon [4]: 1.79e+08 M⁻¹ s⁻¹
kon [5]: 1.56e+08 M⁻¹ s⁻¹
kon [6]: 1.93e+08 M⁻¹ s⁻¹
k dissoc, faster phase of the biexponential decay (α4β4 state, with dATP) [7]: 7 s⁻¹
k dissoc, slower phase of the biexponential decay (α4β4 state, with dATP) [7]: 0.46 s⁻¹
koff [7]: 109 s⁻¹
kon [7]: 1.63e+08 M⁻¹ s⁻¹
B2: His6-α2 (E. coli class Ia ribonucleotide reductase α subunit, NrdA) (enzyme)
chain: T1 sequence (looked up)
